The target of the test is Human BCMA-rFc (BCMA Protein aa 1-54, Human, Recombinant (ECD, rabbit Fc Tag), cat. no. 10620-H15H, Sino Biological) (human) (UniProt Q02223). Description: SPR, 200 nM hCD16a over immobilised hBCMA-rFc without engager (background control). For orientation: Surface plasmon resonance follows binding to a sensor surface in real time, without labels.

Two substances from patent US20250333445A1, “NOVEL POLYPEPTIDES” (Oncopeptides Innovation 1 AB, priority 2022, published 2025) can be followed below.

A value given as a limit tells only on which side of the number the result lay.

For the substance “hCD16a F158 (Cat. no. CDA-H5220, Acro Biosystems) (from UniProt P08637 17-208) (receptor)”, the response signal was below 10 RU.
As for “hCD16a V158 (Cat. no. CD8-H52H4, Acro Biosystems) (from UniProt P08637 17-208) (receptor)”, the response signal was below 10 RU.
